B1: CD8SP-BCMA-huC13-F12-BBz (other)
chain: DIVLTQSPATLSLSPGDRATLSCRASESVTILGSHLIYWYQQKPGQAPRLLIQLASNVQTGIPARFSGSGSRTDFTLTISSLEPEDFAVYYCLQSRTIPRTFGQGTKLEIKRGGGGSGGGGSGGGGSQVQLVQSGSELKKPGESVKISCKASGYTFTHYSMNWVRQAPGQGLEWMGRINTETGEPLYADDFKGRFVFSLDTSASTAYLQISSLKAEDTAVYYCSNDYLYSLDYWGQGTLVTVSSTRAKPTTTPAPRPPTPAPTIASQPLSLRPEACRPAAGGAVHTRGLDFACDIYIWAPLAGTCGVLLLSLVITLYCKRGRKKLLYIFKQPFMRPVQTTQEEDGCSCRFPEEEEGGCELRVKFSRSADAPAYQQGQNQLYNELNLGRREEYDVLDKRRGRDPEMGGKPRRKNPQEGLYNELQKDKMAEAYSEIGMKGERRRGKGHDGLYQGLSTATKDTYDALHMQALPPR
notes: Second generation CAR (41BB, CD3z)
B2: CD8SP-MPL-hu-161-2-BBz (other)
chain: DVVMTQSPSSLSASVGDRVTITCMASEDIYIRLAWYQQKPGNAPKLLIYAATSLETGVPSRFSGSGSGTDFTLTISSLQPEDFATYYCQQYWSSPWTFGGGTKVEIKGGGGSGGGGSGGGGSQVQLQESGPGLVKPSQTLSLTCTVSGYSITSDYTWNWIRQPPGNGLEWIGYITYSGSTSYNPSLKSRVLISVDTSKNQVSLKLSSVTAADTAVYYCARLGRRYTMDYWGQGTTVTVSSTRAKPTTTPAPRPPTPAPTIASQPLSLRPEACRPAAGGAVHTRGLDFACDIYIWAPLAGTCGVLLLSLVITLYCKRGRKKLLYIFKQPFMRPVQTTQEEDGCSCRFPEEEEGGCELRVKFSRSADAPAYQQGQNQLYNELNLGRREEYDVLDKRRGRDPEMGGKPRRKNPQEGLYNELQKDKMAEAYSEIGMKGERRRGKGHDGLYQGLSTATKDTYDALHMQALPPR
notes: Second generation CAR from a humanized MPL antibody (41BB, CD3z); Entry includes the CD8 signal peptide

Tests used:
[1] = target: T1, BCMA (human, UniProt Q02223 1-184); experiment: CAR stably expressed in BCMA-bearing L363 and U266 cell lines; detection reagent not named
T1 construct: whole, on cells; also called human BCMA; BCMA on L363 cells
T1 sequence (looked up): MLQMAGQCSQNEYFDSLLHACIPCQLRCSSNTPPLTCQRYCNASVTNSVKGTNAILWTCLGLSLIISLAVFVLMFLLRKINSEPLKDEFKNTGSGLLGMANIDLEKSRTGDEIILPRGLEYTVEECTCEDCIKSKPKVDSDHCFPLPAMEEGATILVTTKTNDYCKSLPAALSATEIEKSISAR

[2] = target: T2, human MPL (Thrombopoietin Receptor) (human, UniProt P40238 26-635); experiment: CAR expressed in MPL-bearing HEL.92.1.7 cells; staining with MPL antibody (1.6.1) or 161-scFv-Nluc
T2 construct: whole, on cells; also called MPL on HEL.92.1.7 cells
T2 sequence (looked up): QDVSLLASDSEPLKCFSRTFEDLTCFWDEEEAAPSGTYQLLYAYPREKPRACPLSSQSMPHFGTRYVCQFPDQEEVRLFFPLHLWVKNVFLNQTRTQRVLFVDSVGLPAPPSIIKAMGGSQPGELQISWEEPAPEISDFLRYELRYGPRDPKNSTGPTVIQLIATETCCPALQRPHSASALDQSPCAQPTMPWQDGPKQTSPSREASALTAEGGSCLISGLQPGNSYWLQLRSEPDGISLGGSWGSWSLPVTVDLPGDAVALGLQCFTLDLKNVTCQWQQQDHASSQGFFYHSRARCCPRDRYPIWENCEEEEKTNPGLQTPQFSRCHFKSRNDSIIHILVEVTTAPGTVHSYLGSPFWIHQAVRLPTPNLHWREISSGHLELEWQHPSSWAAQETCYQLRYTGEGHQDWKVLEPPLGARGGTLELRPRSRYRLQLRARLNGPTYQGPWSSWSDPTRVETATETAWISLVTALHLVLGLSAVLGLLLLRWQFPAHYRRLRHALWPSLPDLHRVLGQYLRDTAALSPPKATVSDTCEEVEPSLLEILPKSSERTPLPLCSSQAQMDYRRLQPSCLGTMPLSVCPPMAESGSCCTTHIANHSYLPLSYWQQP

Row | Binder | binding result [1] | binding result [2]
1 | B1 | binds | 
2 | B2 |  | binds
